This is an account of results in US20090136475A1 (FRAUNHOFER GESELLSCHAFT ZUR FORDERUNG DER ANGEWANDTEN …, published 2009).

Experiment [1] addresses CD30 molecule on the Hodgkin-derived CD30-positive cell line L540Cy (UniProt P28908). Description: cell-based or functional assay.
Experiment [2] has as its target T1, CD30 molecule on the Hodgkin-derived CD30-positive cell line L540Cy (UniProt P28908 19-595, limits assumed).
T1 construct: whole, on cells; the cell lines are human-derived; also called CD30-positive cells
T1 sequence (looked up): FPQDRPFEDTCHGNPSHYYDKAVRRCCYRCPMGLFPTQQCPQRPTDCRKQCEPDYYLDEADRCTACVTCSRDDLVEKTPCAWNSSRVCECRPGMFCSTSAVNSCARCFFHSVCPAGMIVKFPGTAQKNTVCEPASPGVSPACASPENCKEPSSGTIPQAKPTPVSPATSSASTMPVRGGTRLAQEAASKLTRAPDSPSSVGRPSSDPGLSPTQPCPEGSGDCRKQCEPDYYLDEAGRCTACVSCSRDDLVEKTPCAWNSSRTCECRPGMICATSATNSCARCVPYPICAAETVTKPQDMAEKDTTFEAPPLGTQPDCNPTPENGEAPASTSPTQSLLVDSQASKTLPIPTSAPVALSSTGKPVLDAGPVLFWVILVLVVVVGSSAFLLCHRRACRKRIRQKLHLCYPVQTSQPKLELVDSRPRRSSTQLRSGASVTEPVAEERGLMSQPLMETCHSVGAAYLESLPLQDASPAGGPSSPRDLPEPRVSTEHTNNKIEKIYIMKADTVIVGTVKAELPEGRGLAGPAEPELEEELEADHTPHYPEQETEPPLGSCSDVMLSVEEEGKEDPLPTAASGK
Description: flow cytometry on L540Cy cells, detection by anti-penta-His and FITC goat-anti-mouse IgG. The protocol:
Cell binding activity of the recombinant complexes (immunokinases) expressed in E. coli BL21 Star™ (DE3) was evaluated using a FACSCalibur flow cytometry instrument and CellQuest software (Becton Dickinson, Heidelberg, Germany). Cells were stained with recombinant protein as described (25). Briefly, ten thousand events were collected for each sample, and analyses of Intact cells were performed using appropriate scatter gates to exclude cellular debris and aggregates. 5×10⁵ cells were incubated for 1 h on ice with 50 μl of bacterial protein extract at a concentration of 30-40 μg/ml or 100 μl of the immunokuinase containing supernatants respectively. The cells were washed with PBS buffer containing 0.2% w/v BSA and 0.05% w/v sodium azide (PBA) and then incubated for 30 min with anti-penta-His moab (Qiagen) diluted 1:2 in PBA buffer. Cells were washed and incubated with fluorescein-iso-thiocyanate (FITC)-labeled goat-anti-mouse IgG (DAKO Diagnostica, Hamburg, Germany) for 1 h at 4° C. After a final wash, the cells were treated with 2 μl 6.25 mg/ml propidiumiodide and subsequently analyzed on a FACScalibur (Becton Dickison, Heidelberg, Germany).
(A flow cytometer gives signals particle by particle.)

Regarding “recombinant complex (immunokinase) pMS-(L-DAPk2-Ki-4)-III/G, protein L-DAPk2-Ki-4-MH”, the calculated median IC50, growth inhibition of L540Cy cells, XTT-based colorimetric assay in experiment [1] was 4 to 35 ng/mL.

B1: recombinant complex (immunokinase) pMT-Ki-4(scFv)-eEF-2K (other)
chain: MGHHHHHHHHHHSSGHIDDDDKHMKLMAQPAMAQVKLQESGTELAKPGAAVKMSCKASGYTFTDYWMHWVKQRPGQGLEWIGYINPNTAYTDYNQKFKDKATLTADKSSSTAYMQLRSLTSEDSAVYYCAKKTTQTTWGFPFWGQGTTVTVSSGGGGSGGGGSGGGGSDIVLTQSPKSMAMSVGERVTLSCKASENVDSFVSWYQQKPGQSPKLLIYGASNRYTGVPDRFAGSGSGRDFTLTISSVQAEDLADYHCGQNYRYPLTFGAGTKLEIKRAAAELGGGGSMADEDLIFRLEGVDGGQSPRAGHDGDSDGDSDDEEGYFICPITDDPSSNQNVNSKVNKYYSNLTKSERYSSSGSPANSFHFKEAWKHAIQKAKHMPDPWAEFHLEDIATERATRHRYNAVTGEWLDDEVLIKMASQPFGRGAMRECFRTKKLSNFLHAQQWKGASNYVAKRYIEPVDRDVYFEDVRLQMEAKLWGEEYNRHKPPKQVDIMQMCIIELKDRPGKPLFHLEHYIEGKYIKYNSNSGFVRDDNIRLTPQAFSHFTFERSGHQLIVVDIQGVGDLYTDPQIHTETGTDFGDGNLGVRGMALFFYSHACNRICESMGLAPFDLSPRERDAVNQNTKLLQSAKTILRGTEEKCGSPRVRTLSGSRPPLLRPLSENSGDENMSDVTFDSLPSSPSSATPHSQKLDHLHWPVFSDLDNMASRDHDHLDNHRESENSGDSGYPSEKRGELDDPEPREHGHSYSNRKYESDEDSLGSSGRVCVEKWNLLNSSRLHLPRASAVALEVQRLNALDLEKKIGKSILGKVHLAMVRYHEGGRFCEKGEEWDQESAVFHLEHAANLGELEAIVGLGLMYSQLPHHILADVSLKETEENKTKGFDYLLKAAEAGDRQSMILVARAFDSGQNLSPDRCQDWLEALHWYNTALEMTDCDEGGEYDGMQDEPRYMMLAREAEMLFTGGYGLEKDPQRSGDLYTQAAEAAMEAMKGRLANQYYQKAEEAWAQMEE
notes: Single-chain fusion: pelB signal peptide, enterokinase-cleavable His10 tag, anti-CD30 Ki-4 scFv, eukaryotic elongation factor-2 kinase; It was expressed in the periplasm of E. coli BL21 Star (DE3) and purified by IMAC and SEC
As for B1, the binding result in experiment [2] is recorded as “binds”.
